T1: OVA (UniProt P01012 2-386)
T1 construct: also called ovalbumin
T1 sequence: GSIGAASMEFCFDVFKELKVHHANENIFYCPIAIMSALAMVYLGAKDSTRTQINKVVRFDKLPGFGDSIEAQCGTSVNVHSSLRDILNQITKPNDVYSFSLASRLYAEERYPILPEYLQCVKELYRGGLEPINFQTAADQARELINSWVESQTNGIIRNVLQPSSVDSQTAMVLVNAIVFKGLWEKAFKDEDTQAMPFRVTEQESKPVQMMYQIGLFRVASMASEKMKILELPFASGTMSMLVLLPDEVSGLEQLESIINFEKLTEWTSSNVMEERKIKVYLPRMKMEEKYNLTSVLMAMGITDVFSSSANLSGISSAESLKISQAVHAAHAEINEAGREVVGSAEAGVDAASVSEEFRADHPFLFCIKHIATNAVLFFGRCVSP

B1: human anti-M2 monoclonal antibody no. Z3G1 (recombinant IgG1 type Z3, CHO; ATCC PTA-5967) (antibody, V domains shown)
VH: QVQLVQSGAEVKKPGASVKVSCKASGYTFTSYGISWVRQAPGQGLEWMGWISAYNGNTNYAQKLQGRVTMTTDTSTSTAYMELRSLRSDDTAVYYCARAAAGGYFQHWGQGTLVTVSS
VL: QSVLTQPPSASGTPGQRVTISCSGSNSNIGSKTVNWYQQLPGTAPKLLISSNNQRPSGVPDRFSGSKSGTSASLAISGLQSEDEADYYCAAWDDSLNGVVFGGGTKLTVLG
B2: human anti-M2 antibody Z3 (original, IgG3, hybridoma 113Z-3) (antibody, V domains shown)
VH: B1 VH
VL: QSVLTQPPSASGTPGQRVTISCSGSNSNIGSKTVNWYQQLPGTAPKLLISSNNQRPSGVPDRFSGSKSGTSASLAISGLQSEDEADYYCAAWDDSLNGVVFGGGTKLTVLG

Assays:
M2GHTGKS peptide = M2GHTGKS peptide (influenza A virus); assay: peptide ELISA
Protocol: (§1) ELISA: Antibody titers and antibody specificity as well as antibody production by hybridomas were determined by ELISA. […] After washing twice with PBS/0.1% Tween 20, plates were blocked with PBS/1% BSA (Sigma, St. Louis, Mo.) at 37° C. for 30 min., the antibody or serum was added to the wells and the plates were incubated at 37° C. for 1 hr. After washing four times, diluted HRP conjugated goat anti-human Immunoglobulin gamma chain specific antibody (Jackson Immunoresearch Laboratory, West Grove, Pa.) was added to the wells and incubated for 1 hr at 37° C. After washing four times, TMB substrate solution (DAKO, CA) was added and incubated for 30 min at room temperature. The optical density at 450 nm was measured by a microplate reader.

M2EG peptide = M2EG peptide (influenza A virus); assay: peptide ELISA, grade relative to wild-type M2
Protocol: as §1

M2LGS peptide = M2LGS peptide (influenza A virus); assay: peptide ELISA, grade relative to wild-type M2
Protocol: as §1

M2HTGEKS peptide = M2HTGEKS peptide (influenza A virus); assay: peptide ELISA, grade relative to wild-type M2
Protocol: as §1

M2TDGEKS peptide = M2TDGEKS peptide (influenza A virus); assay: peptide ELISA, grade relative to wild-type M2
Protocol: as §1

M2TGS peptide = M2TGS peptide (influenza A virus); assay: peptide ELISA, grade relative to wild-type M2
Protocol: as §1

M2TGEK peptide = M2TGEK peptide (influenza A virus); assay: peptide ELISA, grade relative to wild-type M2
Protocol: as §1

M2KGENS peptide = M2KGENS peptide (influenza A virus); assay: peptide ELISA, grade relative to wild-type M2
Protocol: as §1

bovine serum albumin [1] = target: T2, bovine serum albumin (bovine, UniProt P02769 25-607); assay: ELISA; positive = more than 2-fold OD450 of control
T2 construct: carrier for immunization

OVA = target: T1, OVA; assay: as above
bovine serum albumin [2] = target: T2, bovine serum albumin; assay: ELISA

T2 sequence (P02769 25-607 limits assumed): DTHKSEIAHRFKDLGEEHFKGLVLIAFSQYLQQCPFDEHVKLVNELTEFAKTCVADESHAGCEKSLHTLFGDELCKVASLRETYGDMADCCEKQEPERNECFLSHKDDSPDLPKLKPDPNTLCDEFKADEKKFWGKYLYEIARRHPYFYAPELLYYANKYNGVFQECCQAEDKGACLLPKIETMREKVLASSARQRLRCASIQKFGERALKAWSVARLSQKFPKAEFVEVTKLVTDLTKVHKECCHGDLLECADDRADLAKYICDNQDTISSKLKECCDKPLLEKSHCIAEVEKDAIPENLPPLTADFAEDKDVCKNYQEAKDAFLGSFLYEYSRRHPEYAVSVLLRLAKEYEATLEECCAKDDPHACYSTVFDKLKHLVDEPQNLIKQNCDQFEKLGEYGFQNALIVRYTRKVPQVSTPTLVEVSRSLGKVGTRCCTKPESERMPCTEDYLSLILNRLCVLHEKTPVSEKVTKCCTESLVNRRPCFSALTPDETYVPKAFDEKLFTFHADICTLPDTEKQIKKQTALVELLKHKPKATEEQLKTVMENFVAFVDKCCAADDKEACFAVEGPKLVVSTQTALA

| Binder | binding result (M2GHTGKS peptide) | binding result (M2EG peptide) | binding result (M2LGS peptide) | binding result (M2HTGEKS peptide) | binding result (M2TDGEKS peptide) | binding result (M2TGS peptide) | binding result (M2TGEK peptide) | binding result (M2KGENS peptide) | binding result (bovine serum albumin [1]) | binding result (OVA) | binding result (bovine serum albumin [2]) |
| --- | --- | --- | --- | --- | --- | --- | --- | --- | --- | --- | --- |
| B1 | no binding (tested: <10% of binding to wild-type M2 peptide) | binds | binds | binds | binds | binds | binds | binds | no binding | no binding |  |
| B2 |  |  |  |  |  |  |  |  |  |  | no binding |

From patent US20090196872A1 (KIRIN BEER, published 2009)
